Measured values: article PMC10705891

B1: H1 RNA aptamer (structured_RNA)
RNA: GCCACCAACGACAUUUUGUCAAUCUGUAGAAAAAAUCAGGGUUGAUAUAAAUAGUGCCCAU
B2: H2 RNA aptamer (structured_RNA)
RNA: GCCACCAACGACAUUACGCAUUGCUUCUAAAGGGUGUGCCGUUGAUAUAAAUAGUGCCCAU

Biological target: HopU1 (Pseudomonas syringae, UniProt Q88A91 1-264)
Assay: MST
Details: protein: recombinant; tags: C-terminal His6 (pET22b NdeI/XhoI, Ni-NTA; tag position implied by vector)

Binder | Kd
B1 | 6.71 ± 0.69 nM
B2 | 6.41 ± 0.48 nM
